Reference: the supplement of paper PMC6755084

B1: F1*; the commonest letter at each place (parent)
chain: GAGACCGCAACTGAAAAGTTGTTATCACTTGTCGTAAGACACTTTGGATGGGTTGAAGTTCTGCACGTAGAAGCAAAAGGC

Variants of: B1
Experiment: fraction ligated after 30 min (ligated reads / total reads); higher = more ligase activity
Settings: with F1*sub RNA substrate (template-directed ligation), 42 °C
Summary of the method: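 Templates from an oligo pool were PCR-amplified, transcribed with T7 and gel-purified to give the ribozyme variants. Ligated and unligated products were separated on gel, reverse transcribed using barcoded primers, and read on a MiSeq. A quality filter of ≥20 was applied to core bases. Fraction ligated was taken as ligated reads as a share of all reads per variant.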

Variant	fraction ligated
T30C G31C T32C A39G C40G A41G	0.867
T30A A48C	0.741
T30A A48T	0.671
T30A A48G	0.806
T30C G50T	0.452
T30C G50A	0.175
T30C G50C	0.107
T30A T43G	0.8
T30A T43A	0.828
T30A T43C	0.794
T30G A37C	0.849
T30G A37G	0.852
T30G A37T	0.86
T30A C33A	0.847
T30A C33T	0.849
T30A C33G	0.84
T30A A36C	0.854
T30A A36G	0.832
T30A A36T	0.823
T30G T32G C33G G38C A39C A41C	0.862
T30A G38C	0.795
T30A G38A	0.813
T30A G38T	0.832
T30G G31C T32C A39G C40G A41C	0.846

Variant	fraction ligated
G31A A56T	0.724
G31A A56G	0.687
G31A A56C	0.161
G31A A41C	0.74
G31A A41T	0.81
G31A A41G	0.797
G31A C40T	0.831
G31A C40A	0.839
G31A C40G	0.85
T30C G31C T32C C33G G38C A39G C40G A41G	0.892
T29G T43C	0.817
T29G T43G	0.777
T29G T43A	0.826
T29G G38T	0.855
T29G G38A	0.844
T29G G38C	0.844
G31A A48C	0.322
G31A A48G	0.254
G31A A48T	0.01
T30G G47A	0.654
T30G G47C	0.0588
T30G G47T	0.15
T30G T32G A39C A41C	0.845
T30G G31C T32G A39C C40G A41C	0.85

Variant	fraction ligated
T30G T45C	0.803
T30G T45G	0.46
T30G T45A	0.76
G31A G55A	0.823
G31A G55T	0.767
G31A G55C	0.205
T29G G47C	0.696
T29G G47T	0.738
T29G G47A	0.816
T30G A48T	0.796
T30G A48G	0.791
T30G A48C	0.761
T30C T35G	0.795
T30C T35A	0.796
T30C T35C	0.824
T30G C33A	0.86
T30G C33G	0.854
T30G C33T	0.867
T30C T32G C33G G38C A39C A41G	0.831
G31A T43G	0.807
G31A T43A	0.815
G31A T43C	0.797
T30A G50T	0.57
T30A G50C	0.111

Variant	fraction ligated
T30A G50A	0.22
T29G T45C	0.677
T29G T45G	0.267
T29G T45A	0.673
T30G G31C T32G C33G G38C A39C C40G A41C	0.828
T30G T35A	0.845
T30G T35G	0.847
T30G T35C	0.813
G31A G38C	0.798
G31A G38A	0.796
G31A G38T	0.798
T30G A39G	0.841
T30G A39C	0.786
T30G A39T	0.779
G31A	0.812
T30C G55A	0.81
T30C G55T	0.757
T30C G55C	0.504
T30C T49A	0.575
T30C T49C	0.0166
T30C T49G	0.485
T30A G47A	0.793
T30A G47T	0.373
T30A G47C	0.128

Variant	fraction ligated
T30C T45C	0.475
T30C T45G	0.174
T30C T45A	0.668
T30A T35G	0.827
T30A T35C	0.816
T30A T35A	0.839
T30C A48T	0.346
T30C A48C	0.757
T30C A48G	0.329
T30A G34C	0.781
T30A G34A	0.833
T30A G34T	0.802
T30G T49C	0.526
T30G T49A	0.739
T30G T49G	0.808
T30G G34A	0.825
T30G G34C	0.795
T30G G34T	0.796
T30C C33A	0.824
T30C C33G	0.837
T30C C33T	0.84
T30C C40T	0.808
T30C C40G	0.828
T30C C40A	0.828

Variant	fraction ligated
G31A C33T	0.829
G31A C33G	0.824
G31A C33A	0.833
G31A G46T	0.777
G31A G46A	0.845
G31A G46C	0.524
G31A A57C	0.819
G31A A57T	0.796
G31A A57G	0.851
T30A G46C	0.795
T30A G46A	0.809
T30A G46T	0.805
T30A A37C	0.831
T30A A37G	0.87
T30A A37T	0.832
T30C T32C A39G A41G	0.816
T30G G38C	0.805
T30G G38T	0.816
T30G G38A	0.843
T30C G31C T32G C33G G38C A39C C40G A41G	0.839
T29G T49A	0.753
T29G T49G	0.77
T29G T49C	0.733
T30G G31C	0.845

Variant	fraction ligated
T30G G31A	0.853
T30G G31T	0.853
G31A T35A	0.823
G31A T35C	0.813
G31A T35G	0.763
G31A G47T	0.0708
G31A G47A	0.54
G31A G47C	0.0647
T30C G31A	0.779
T30C G31T	0.823
T30C G31C	0.789
T30G A41T	0.82
T30G A41G	0.84
T30G A41C	0.834
T30G T43C	0.794
T30G T43A	0.859
T30G T43G	0.795
T29G C40T	0.809
T29G C40G	0.83
T29G C40A	0.84
T30A A39G	0.805
T30A A39C	0.777
T30A A39T	0.81
T30G T32C C33G G38C A39G A41C	0.835

Variant	fraction ligated
T30A A41C	0.797
T30A A41G	0.798
T30A A41T	0.859
T30G	0.843
T30C	0.807
T30A	0.855
T29G T30G	0.844
T29G T30C	0.828
T29G T30A	0.823
T30C G38A	0.797
T30C G38C	0.78
T30C G38T	0.795
T30C T43A	0.809
T30C T43C	0.788
T30C T43G	0.768
T30A T45C	0.746
T30A T45A	0.604
T30A T45G	0.211
T29G T35C	0.803
T29G T35A	0.83
T29G T35G	0.813
T30C G47C	0.0928
T30C G47A	0.798
T30C G47T	0.358

Variant	fraction ligated
T30G C40A	0.854
T30G C40T	0.819
T30G C40G	0.81
T30A T32A	0.843
T30A T32C	0.768
T30A T32G	0.842
G31A C42G	0.818
G31A C42T	0.839
G31A C42A	0.834
T29G G50A	0.345
T29G G50C	0.243
T29G G50T	0.683
T30C T32C C33G G38C A39G A41G	0.816
T30A G55C	0.741
T30A G55T	0.818
T30A G55A	0.816
T30G G55A	0.846
T30G G55T	0.819
T30G G55C	0.793
T30C T32A	0.817
T30C T32G	0.809
T30C T32C	0.726
T29G G34T	0.83
T29G G34A	0.824

Variant	fraction ligated
T29G G34C	0.808
T29G C42A	0.813
T29G C42G	0.839
T29G C42T	0.83
T29G T32G	0.832
T29G T32A	0.821
T29G T32C	0.809
G31A T32A	0.809
G31A T32G	0.837
G31A T32C	0.811
T30A A56T	0.81
T30A A56G	0.797
T30A A56C	0.773
T30C A57T	0.769
T30C A57C	0.777
T30C A57G	0.818
T30G A57C	0.806
T30G A57T	0.828
T30G A57G	0.787
T30G G31C T32C C33G G38C A39G C40G A41C	0.797
T29G G55T	0.792
T29G G55A	0.79
T29G G55C	0.584
T30G T44C	0.808

Variant	fraction ligated
T30G T44G	0.798
T30G T44A	0.831
T30A A57C	0.778
T30A A57T	0.8
T30A A57G	0.837
T30C G34C	0.746
T30C G34T	0.787
T30C G34A	0.792
T30G C42A	0.831
T30G C42T	0.817
T30G C42G	0.834
T30C T44A	0.807
T30C T44G	0.812
T30C T44C	0.803
G31A A39G	0.795
G31A A39C	0.78
G31A A39T	0.795
T30G A56G	0.757
T30G A56C	0.786
T30G A56T	0.797
T30G T32C A39G A41C	0.803
T30C A41C	0.752
T30C A41G	0.828
T30C A41T	0.805

Variant	fraction ligated
T29G C33T	0.808
T30C T32G A39C A41G	0.852
T30A T44G	0.825
T30A T44C	0.828
T30A T44A	0.855
G31A A37G	0.827
G31A A37C	0.813
G31A A37T	0.826
T30G A36T	0.841
T30G A36G	0.872
T30G A36C	0.833
T29G T44G	0.791
T29G T44C	0.795
T29G T44A	0.848
T29G G46A	0.832
T29G G46T	0.805
T29G G46C	0.786
G31A G50T	0.195
G31A G50C	0.0295
G31A G50A	0.025
T30A C40G	0.803
T30A C40T	0.825
T30A C40A	0.845
T30G T32C	0.784

Variant	fraction ligated
T30G T32A	0.883
T30G T32G	0.865
T29G G31C	0.804
T29G G31A	0.836
T29G G31T	0.835
T30G G46T	0.785
T30G G46A	0.791
T30G G46C	0.776
T30C C42A	0.817
T30C C42G	0.817
T30C C42T	0.794
T30C G31C T32G A39C C40G A41G	0.862
T30C A36G	0.823
T30C A36C	0.801
T30C A36T	0.816
T30A T49G	0.754
T30A T49C	0.467
T30A T49A	0.694
T30A C42A	0.815
T30A C42G	0.847
T30A C42T	0.852
G31A A36C	0.8
G31A A36T	0.827
G31A A36G	0.595

Variant	fraction ligated
T30A G31C	0.784
T30A G31A	0.842
T30A G31T	0.831
G31A G34C	0.769
G31A G34A	0.804
G31A G34T	0.796
T30C A56C	0.763
T30C A56G	0.764
T30C A56T	0.749
T30G G50C	0.342
T30G G50T	0.712
T30G G50A	0.513
T30C A39G	0.782
T30C A39T	0.764
T30C A39C	0.765
T30C A37G	0.83
T30C A37C	0.794
T30C A37T	0.805
G31A T44A	0.818
T30C G46C	0.759
T30C G46A	0.807
T30C G46T	0.78
